Results on 94 variants are retold here after the supplement of paper PMC10567573.

The labels stand for the following.
B1: KIAA0774 (parent)
chain: FEDEVKRLGWQQQAELQELEERLQ
B2: SCARA5 (parent)
chain: VTEDLRLKDWEHSIALRNISLAKG
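Further: lentivirally expressed fusions sorted by FACS into six bins by GFP to DsRed ratio, PSI derived from sequencing read proportions per bin multiplied by bin number.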

The first series covers variants of B1. The series can be described thus: protein stability index of a GFP-peptide fusion (GPS, HEK-293T) (PSI 1-6); higher = more stable. The note with it: c terminus: a fixed tail appended.
With FEDEVKRLGWQQQPELQELEERLQ [A14P], the protein stability index was found to be 5.4.

Turning to FEDEVKRLGWQQQAELQESEERLQ [L19S], the protein stability index was 4.39.

Take FEDEVKRLGWQQQAELQELEEKLQ [R22K]: the protein stability index came to 3.85. Take FEDEVKRLGWQQFAELQELEERLQ [Q13F]: the protein stability index was 4.42. On the same count and under the same terms, next, FEDEVKRLGWQPQAELQELEERLQ [Q12P]: 5.22. Still for that read-out and setting: to FEDEVKRLGWQWQAELQELEERLQ [Q12W] belongs 2.9; to FEDVVKRLGWQQQAELQELEERLQ [E4V], 3.33; to FEHEVKRLGWQQQAELQELEERLQ [D3H], 2.99.

With FEDEVKRLGWQQQAELQALEERLQ [E18A], the protein stability index was determined as 3.84. On the same count and under the same terms, to FEDEVKRLGWQQQAELQHLEERLQ [E18H] belongs 3.37; to FEDEVKRLGWGQQAELQELEERLQ [Q11G], 4.84; to QEDEVKRLGWQQQAELQELEERLQ [F1Q], 4.05. Same read-out and setting: next, FEDEVKRLGWQQQAELQELEIRLQ [E21I]: 3.79.

With FEDEVKRLGWQQQAELQELETRLQ [E21T], the protein stability index is 4.69. Still for that read-out and setting: next, FEDEVKRLGWQQQAELQELEERLE [Q24E]: 3.8; FEDEVKRLGWQQQAELQELEERLY [Q24Y]: 3.82; FEDEVKRLGRQQQAELQELEERLQ [W10R]: 5.5. On the same count and under the same terms, to FEDEVKRLGMQQQAELQELEERLQ [W10M] belongs 5.65; to FEDEVKRLGWQQQAELNELEERLQ [Q17N], 5.34; to FTDEVKRLGWQQQAELQELEERLQ [E2T], 2.77. Still for that read-out and setting: next, FHDEVKRLGWQQQAELQELEERLQ [E2H]: 2.16.

The next series covers variants of B2. The series is described as above. The note with it: c terminus: a fixed tail appended.
For the variant VTEDLSLKDWEHSIALRNISLAKG [R6S], the protein stability index was 3.27. On the same count and under the same terms, next, VTEDLCLKDWEHSIALRNISLAKG [R6C]: 3.86; VTEDLFLKDWEHSIALRNISLAKG [R6F]: 3.56. Same read-out and setting: next, VTEDLELKDWEHSIALRNISLAKG [R6E]: 3.58.

Regarding VTEDLLLKDWEHSIALRNISLAKG [R6L], the protein stability index was 3.29. As to VTEDLTLKDWEHSIALRNISLAKG [R6T], the protein stability index turned out to be 3.75. VTEDLILKDWEHSIALRNISLAKG [R6I]: the protein stability index is 3.15. On the same count and under the same terms, to VTEDLMLKDWEHSIALRNISLAKG [R6M] belongs 2.99; to VTEDLDLKDWEHSIALRNISLAKG [R6D], 3.73. VTEDLQLKDWEHSIALRNISLAKG [R6Q]: the protein stability index was 3.79. Still for that read-out and setting: next, VTEDLYLKDWEHSIALRNISLAKG [R6Y]: 2.85; VTEDLALKDWEHSIALRNISLAKG [R6A]: 3.63. Turning to VTEDLPLKDWEHSIALRNISLAKG [R6P], the protein stability index was determined as 3.26. Still for that read-out and setting: to VTEDLHLKDWEHSIALRNISLAKG [R6H] belongs 3.62; to VTEDLGLKDWEHSIALRNISLAKG [R6G], 3.53; to VTEDLNLKDWEHSIALRNISLAKG [R6N], 3.22. VTEDLKLKDWEHSIALRNISLAKG [R6K]: the protein stability index stood at 3.66. With VTEDLWLKDWEHSIALRNISLAKG [R6W], the protein stability index was 2.62. With VTEDLVLKDWEHSIALRNISLAKG [R6V], the protein stability index was determined as 3.95. The same measure, in the same setting: to VTADLRLKDWEHSIALRNISLAKG [E3A] belongs 1.74; to VTTDLRLKDWEHSIALRNISLAKG [E3T], 2.71; to VTYDLRLKDWEHSIALRNISLAKG [E3Y], 2.44.

Consider VTQDLRLKDWEHSIALRNISLAKG [E3Q], for which the protein stability index amounted to 2.63. Same read-out and setting: to VTCDLRLKDWEHSIALRNISLAKG [E3C] belongs 2.25. As for VTPDLRLKDWEHSIALRNISLAKG [E3P], the protein stability index came out at 3.39. Consider VTGDLRLKDWEHSIALRNISLAKG [E3G], for which the protein stability index turned out to be 2.94.

Consider VTSDLRLKDWEHSIALRNISLAKG [E3S], for which the protein stability index was found to be 3.16. Same read-out and setting: to VTKDLRLKDWEHSIALRNISLAKG [E3K] belongs 3; to VTHDLRLKDWEHSIALRNISLAKG [E3H], 3.03. On the same count and under the same terms, to VTFDLRLKDWEHSIALRNISLAKG [E3F] belongs 1.85; to VTMDLRLKDWEHSIALRNISLAKG [E3M], 2.75. On the same count and under the same terms, next, VTIDLRLKDWEHSIALRNISLAKG [E3I]: 2.26; VTRDLRLKDWEHSIALRNISLAKG [E3R]: 2.96; VTDDLRLKDWEHSIALRNISLAKG [E3D]: 3.68.

Consider VTNDLRLKDWEHSIALRNISLAKG [E3N], for which the protein stability index was found to be 3.03. On the same count and under the same terms, to VTLDLRLKDWEHSIALRNISLAKG [E3L] belongs 1.37; to VTWDLRLKDWEHSIALRNISLAKG [E3W], 1.58; to VTVDLRLKDWEHSIALRNISLAKG [E3V], 1.69. Consider VTEDLRDKDWEHSIALRNISLAKG [L7D], for which the protein stability index was 3.89. On the same count and under the same terms, next, VTEDLRQKDWEHSIALRNISLAKG [L7Q]: 3.63. Still for that read-out and setting: next, VTEDLRIKDWEHSIALRNISLAKG [L7I]: 3.13; VTEDLRSKDWEHSIALRNISLAKG [L7S]: 3.84; VTEDLRYKDWEHSIALRNISLAKG [L7Y]: 3.2. Still for that read-out and setting: next, VTEDLRVKDWEHSIALRNISLAKG [L7V]: 3.71; VTEDLRCKDWEHSIALRNISLAKG [L7C]: 3.39; VTEDLRPKDWEHSIALRNISLAKG [L7P]: 3.89. VTEDLRKKDWEHSIALRNISLAKG [L7K]: the protein stability index amounted to 3.91. The same measure, in the same setting: next, VTEDLRAKDWEHSIALRNISLAKG [L7A]: 3.35; VTEDLRMKDWEHSIALRNISLAKG [L7M]: 3.45; VTEDLRRKDWEHSIALRNISLAKG [L7R]: 2.81. Same read-out and setting: next, VTEDLRNKDWEHSIALRNISLAKG [L7N]: 3.83; VTEDLRHKDWEHSIALRNISLAKG [L7H]: 3.69. Still for that read-out and setting: next, VTEDLREKDWEHSIALRNISLAKG [L7E]: 4.21. Turning to VTEDLRGKDWEHSIALRNISLAKG [L7G], the protein stability index was 3.67. On the same count and under the same terms, next, VTEDLRFKDWEHSIALRNISLAKG [L7F]: 3.75. The same measure, in the same setting: next, VTEDLRTKDWEHSIALRNISLAKG [L7T]: 3.39; VTEDLRWKDWEHSIALRNISLAKG [L7W]: 2.98; VTEILRLKDWEHSIALRNISLAKG [D4I]: 2.35.

Consider VTEYLRLKDWEHSIALRNISLAKG [D4Y], for which the protein stability index was found to be 2.01.

With VTECLRLKDWEHSIALRNISLAKG [D4C], the protein stability index was 2.53. On to VTELLRLKDWEHSIALRNISLAKG [D4L], for which the protein stability index came out at 2.26.

As for VTESLRLKDWEHSIALRNISLAKG [D4S], the protein stability index was found to be 2.76. Still for that read-out and setting: next, VTEQLRLKDWEHSIALRNISLAKG [D4Q]: 3.42; VTEPLRLKDWEHSIALRNISLAKG [D4P]: 3.41. Still for that read-out and setting: to VTERLRLKDWEHSIALRNISLAKG [D4R] belongs 3.16; to VTEMLRLKDWEHSIALRNISLAKG [D4M], 2.45. On the same count and under the same terms, next, VTEVLRLKDWEHSIALRNISLAKG [D4V]: 2.81; VTEALRLKDWEHSIALRNISLAKG [D4A]: 2.87; VTEWLRLKDWEHSIALRNISLAKG [D4W]: 2.05. In the case of VTEELRLKDWEHSIALRNISLAKG [D4E], the protein stability index was determined as 3.45. On to VTEKLRLKDWEHSIALRNISLAKG [D4K], for which the protein stability index amounted to 2.61. Take VTETLRLKDWEHSIALRNISLAKG [D4T]: the protein stability index stood at 3.03. In the case of VTEHLRLKDWEHSIALRNISLAKG [D4H], the protein stability index stood at 3.43.
